The values below come from paper PMC7244319.

One data set has as its target GST-mLysRS (Mus musculus, UniProt Q99MN1 1-595). Briefly: streptavidin pull-down.
Another data set has as its target GST-LysRS (human) (Homo sapiens, UniProt Q15046 1-597). Nature of the data set: streptavidin pull-down, WB quantification.
The target in a further data set is GST-cGAS (human) (Homo sapiens, UniProt Q8N884 1-522). Briefly: streptavidin pull-down, WB quantification.
Chain of GST-cGAS (human) (Q8N884 whole entry): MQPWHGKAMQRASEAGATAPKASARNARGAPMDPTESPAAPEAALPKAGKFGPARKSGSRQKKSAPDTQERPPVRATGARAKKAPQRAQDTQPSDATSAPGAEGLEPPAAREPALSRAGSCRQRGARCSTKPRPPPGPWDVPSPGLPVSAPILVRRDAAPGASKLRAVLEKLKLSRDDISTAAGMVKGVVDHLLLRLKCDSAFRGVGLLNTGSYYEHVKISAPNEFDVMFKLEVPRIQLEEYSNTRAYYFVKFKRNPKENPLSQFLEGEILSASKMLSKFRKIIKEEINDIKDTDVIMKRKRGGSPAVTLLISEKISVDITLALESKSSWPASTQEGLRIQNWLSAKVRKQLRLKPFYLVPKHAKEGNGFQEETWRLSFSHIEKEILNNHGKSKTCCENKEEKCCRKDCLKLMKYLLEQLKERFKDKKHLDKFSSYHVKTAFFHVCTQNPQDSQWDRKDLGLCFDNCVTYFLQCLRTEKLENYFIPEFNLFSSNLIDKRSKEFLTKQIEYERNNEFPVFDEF

Chain of GST-mLysRS (Q99MN1 whole entry): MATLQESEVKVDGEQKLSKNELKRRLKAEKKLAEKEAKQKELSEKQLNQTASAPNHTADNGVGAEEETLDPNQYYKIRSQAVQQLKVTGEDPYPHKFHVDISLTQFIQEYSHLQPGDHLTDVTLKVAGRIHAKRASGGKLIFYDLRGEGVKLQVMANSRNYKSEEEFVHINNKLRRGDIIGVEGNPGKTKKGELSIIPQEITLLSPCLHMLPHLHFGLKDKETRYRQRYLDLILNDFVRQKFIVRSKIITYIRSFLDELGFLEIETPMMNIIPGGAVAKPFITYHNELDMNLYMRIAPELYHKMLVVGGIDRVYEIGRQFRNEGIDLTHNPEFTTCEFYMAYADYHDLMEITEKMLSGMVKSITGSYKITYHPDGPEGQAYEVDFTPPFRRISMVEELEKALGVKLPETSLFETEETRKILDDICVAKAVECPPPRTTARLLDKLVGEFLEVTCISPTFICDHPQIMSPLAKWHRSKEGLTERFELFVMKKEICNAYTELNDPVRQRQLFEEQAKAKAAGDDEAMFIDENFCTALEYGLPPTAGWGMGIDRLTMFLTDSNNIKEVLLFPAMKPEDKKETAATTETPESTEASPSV
Chain of GST-LysRS (human) (Q15046 whole entry): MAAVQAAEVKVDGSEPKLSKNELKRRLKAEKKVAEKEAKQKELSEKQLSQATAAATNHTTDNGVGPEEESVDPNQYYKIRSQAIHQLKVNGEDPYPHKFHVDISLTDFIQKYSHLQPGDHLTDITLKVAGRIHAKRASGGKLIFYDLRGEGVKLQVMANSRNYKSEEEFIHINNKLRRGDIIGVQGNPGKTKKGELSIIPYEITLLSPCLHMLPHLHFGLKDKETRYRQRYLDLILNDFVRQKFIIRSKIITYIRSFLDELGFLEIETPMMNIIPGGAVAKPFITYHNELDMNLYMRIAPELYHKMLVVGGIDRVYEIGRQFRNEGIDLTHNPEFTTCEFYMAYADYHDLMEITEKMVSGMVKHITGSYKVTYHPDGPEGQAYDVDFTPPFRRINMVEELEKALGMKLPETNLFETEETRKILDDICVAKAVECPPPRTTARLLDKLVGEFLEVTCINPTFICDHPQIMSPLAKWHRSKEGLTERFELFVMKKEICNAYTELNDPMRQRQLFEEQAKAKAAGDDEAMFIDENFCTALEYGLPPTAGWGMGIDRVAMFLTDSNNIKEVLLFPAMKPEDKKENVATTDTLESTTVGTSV

B1: BRNA:DNA hybrid (BRNA 2/DNA 9) (DNA:RNA)
RNA: UUUCAAUUCCUUUUAGGAUUAAUCUUGAAGAUAGAGUUAA
DNA: TTAACTCTATCTTCAAGATTAATCCTAAAAGGAATTGAAA
As usually defined, the Kd is the equilibrium constant for the complex coming apart. A higher Kd goes with weaker binding. B1: the binding result with GST-mLysRS was “binds”. Further, the values for the Kd with GST-LysRS (human) and with GST-cGAS (human) were ~11.3 nM and ~8.05 nM, respectively.
